Test results reported in US20210371542A1.

Biological target: human glypican-3 (GPC3) on the cell surface (human), P51654
Assay: cell-based or functional assay

lytic activity against Hep3B cells at E:T ratio of 5 (HCC patient-derived T cells): 30 to 70%
lytic activity against Hep3B cells at E:T ratio of 5 (HCC patient-derived T cells), average: 50%
lytic activity against Hep3B cells at E:T ratio of 5 (healthy donor-derived T cells), average: 90%
B1: CAR.hYP7 (GPC3-targeted chimeric antigen receptor with humanized YP7 scFv, CD8α hinge and TM, 4-1BB, CD3ζ) (protein)
chain: HMEVQLVESGGGLVQPGGSLRLSCAASGFTFNKNAMNWVRQAPGKGLEWVGRIRNKTNNYATYYADSVKARFTISRDDSKNSLYLQMNSLKTEDTAVYYCVAGNSFAYWGQGTLVTVSAGGGGSGGGGSGGGGSDIVMTQSPDSLAVSLGERATINCKSSQSLLYSSNQKNYLAWYQQKPGQPPKLLIYWASSRESGVPDRFSGSGSGTDFTLTISSLQAEDVAVYYCQQYYNYPLTFGQGTKLEIKTSTTTPAPRPPTPAPTIASQPLSLRPEACRPAAGGAVHTRGLDFACDIYIWAPLAGTCGVLLLSLVITKRGRKKLLYIFKQPFMRPVQTTQEEDGCSCRFPEEEEGGCELRVKFSRSADAPAYQQGQNQLYNELNLGRREEYDVLDKRRGRDPEMGGKPRRKNPQEGLYNELQKDKMAEAYSEIGMKGERRRGKGHDGLYQGLSTATKDTYDALHMQALPPR
